Test [1] deals with HEK 293T cells. Nature of the test: hDHFR regulated CD40L surface expression, HEK 293T cells (flow cytometry). The format is cell-based, human. The conditions noted are these: 50 μM TMP 24 hours. The protocol: HEK 293T cells were transiently […] with hDHFR regulated constructs namely OT-001962, OT-001961, OT-001963 for 24 hours. Following transfection, cells were treated with 50 μM TMP for 24 hours and CD40L cell surface expression was measured using flow cytometry. […] CD40L expression in the absence of ligand was virtually undetectable.
(Flow cytometry measures light scatter and fluorescence of single cells or particles in a stream.)

Test [2] has as its system Jurkat cells. Nature of the test: DHFR regulated CD40L expression, transduced Jurkat cells (flow cytometry). The format is cell-based. As to conditions: for SR: TMP (50 μM) versus Vehicle. As for the experimental part: Jurkat cells were transduced with lentiviruses corresponding to OT-001662, OT-001962, OT-001961, OT-001963. 24 hours after transduction, cells were split and treated with DMSO or 50 μM TMP for another 24 hours until flow cytometry-based analysis. The results are shown in Table 37 where SR indicates stabilization ration.

B1: OT-001961: hDHFR regulated CD40L construct (protein)
chain: MVGSLNCIVAVSQNMGIGKNGDLPWPPLRNEFRYFQRMTTTSSVEGKQNLVIMGKKTWFSIPEKNRPLKGRINLVLSRELKEPPQGAHFLSRSLDDALKLTEQPELANKVDMVWIVGGSSVIKEAMNHPGHLKLFVTRIMQDFESDTFFPEIDLEKYKLLPEYPGVLSDVQEEKGIKYKFEVYEKNDHMIETYNQTSPRSAATGLPISMKIFMYLLTVFLITQMIGSALFAVYLHRRLDKIEDERNLHEDFVFMKTIQRCNTGERSLSLLNCEEIKSQFEGFVKDIMLNKEETKKENSFEMQKGDQNPQIAAHVISEASSKTTSVLQWAEKGYYTMSNNLVTLENGKQLTVKRQGLYYIYAQVTFCSNREASSQAPFIASLCLKSPGRFERILLRAANTHSSAKPCGQQSIHLGGVFELQPGASVFVNVTDPSQVSHGTGFTSFGLLKL
As for B1, the “% CD40L” value in test [1] was 14.6%. Further, the “% CD40L expression” value in test [2] (TMP (50 μM)) came to 3.5%; in test [2] (Vehicle (DMSO)), 2%. Also, the SR in test [2] amounted to 1.8.

B2: OT-001963: hDHFR regulated CD40L construct (protein)
chain: MVGSLNCIVAVSQNMGIGKNGDLPWPPLRNEFRYFQRMTTTSSVEGKQNLVIMGRKTWFSIPEKKRPLKGRINLVLSRELKEPPQGAHFLSRSLDDALKLTEQPELANKVDMVWIVGGSSVIKEAMNHPGHLKLFVTRIMQDFESDTFFPEIDLEKYKLLPEYPGVLSDVQEEKGIKYKFEVYEKNDHMIETYNQTSPRSAATGLPISMKIFMYLLTVFLITQMIGSALFAVYLHRRLDKIEDERNLHEDFVFMKTIQRCNTGERSLSLLNCEEIKSQFEGFVKDIMLNKEETKKENSFEMQKGDQNPQIAAHVISEASSKTTSVLQWAEKGYYTMSNNLVTLENGKQLTVKRQGLYYIYAQVTFCSNREASSQAPFIASLCLKSPGRFERILLRAANTHSSAKPCGQQSIHLGGVFELQPGASVFVNVTDPSQVSHGTGFTSFGLLKL
B2: in test [1], the “% CD40L” value is 13.3%. Besides, the results for the “% CD40L expression” value in test [2] (TMP (50 μM)) and in test [2] (Vehicle (DMSO)) were 20% and 2%, respectively. In test [2], this molecule came in with an SR of 10.

Source of the values: patent publication US20220175781A1, “CD40L COMPOSITIONS AND METHODS FOR TUNABLE REGULATION” (Obsidian Therapeutics, Inc., priority 2019, published 2022).
